This is an account of results in patent US20250152742A1, “COMPOSITIONS AND METHODS FOR NEUROLOGICAL DISEASES” (Trames Bio, Inc., priority 2022, published 2025).

The target in the assay is SEQ ID NO: 33 (CODA71) versus wild type α7-nAChR (Homo sapiens, UniProt P36544, F159M/H163T/I152M/R155K/V154L/W156N/Y151P). As to the kind of experiment: Sensitivity of parental chimera SEQ ID NO: 33 to ligands compared with wild type α7-nAChR. From the text: To generate LGICs that conduct anion current following exposure to non-native small molecule agonists of the human α7-nAChR, chimeric ligand gated ion channel (LGIC) receptors comprising the ligand binding domain derived from the human α7 nicotinic acetylcholine receptor (α7-nAChR) and the chloride-conducting ion pore domain derived from the human GlyR1α were genetically engineered. […] SEQ ID NO:33 was approximate 2-fold less sensitive to nicotine and approximately 3-fold and 10-fold more sensitive to AZD-0328 and Facinicline/RG3487, respectively, than wild type. CODA71 is described in detail in WO2019104307 and WO2021035179, which are incorporated herein in their entireties.

B1: CODA71: parental chimeric LGIC: human α7-nAChR ligand binding domain with GlyRα1 Cys-loop fused to human GlyRα1 ion pore domain (protein)
chain: MRCSPGGVWLALAASLLHVSLQGEFQRKLYKELVKNYNPLERPVANDSQPLTVYFSLSLLQIMDVDEKNQVLTTNIWLQMSWTDHYLQWNVSEYPGVKTVRFPDGQIWKPDILLYNSADERFDATFHTNVLVNSSGHCQYLPPGIFKSSCPMDLKNFPMDVQTCKLKFGSWSYGGWSLDLQMQEADISGYIPNGEWDLVGIPGKRSERFYECCKEPYPDVTFTVTMRRRMGYYLIQMYIPSLLIVILSWISFWINMDAAPARVGLGITTVLTMTTQSSGSRASLPKVSYVKAIDIWMAVCLLFVFSALLEYAAVNFVSRQHKELLRFRRKRRHHKSPMLNLFQEDEAGEGRFNFSAYGMGPACLQAKDGISVKGANNSNTTNPPPAPSKSPEEMRKLFIQRAKKIDKISRIGFPMAFLIFNMFYWIIYKIVRREDVHNQ
modifications: synthetic sequence of chimeric LGIC
Regarding B1, the “sensitivity to ABT-126 compared with wild type α7-nAChR” value (ligand ABT-126) was “approximately as sensitive”. For the setting “ligand AZD-0328”, the “fold more sensitive to AZD-0328 than wild type” value was “approximately 3 fold”. For the same molecule, under “ligand Facinicline/RG3487”, the “fold more sensitive to Facinicline/RG3487 than wild type” value is recorded as around 10 fold. The “sensitivity to TC-6987 compared with wild type α7-nAChR” value (ligand TC-6987) is “approximately as sensitive”. The “agonist activity of TC-6987 on the receptor” value (ligand TC-6987, similar to wild type) is “partial agonist activity”. Also, under “ligand acetylcholine”, the “sensitivity to acetylcholine compared with wild type α7-nAChR” value was “approximately as sensitive”. For the same molecule, the “fold less sensitive to nicotine than wild type” value (ligand nicotine) was around 2 fold.
